Patent US20210355180A1 (published 2021)

Biological target: T1, biotinylated anti-ABD goat antibody
T1 construct: also called Anti-ABD surface
Assay: SPR (Biacore 2000), periplasm diluted 15x over anti-ABD surface
Text: SPR analysis of periplasmic samples: A selection of Aβ peptide binding polypeptides was subjected to an analysis of the response against biotinylated hAβ₁₋₄₀ using a Biacore 2000 instrument (GE Healthcare). Biotinylated anti-ABD goat antibody (produced in-house) and N-terminally biotinylated hAβ₁₋₄₀ (AnaSpec cat. no. AS-24648) were immobilized in separate flow cells on a streptavidin coated chip (Biacore Sensor Chip SA, cat. no. BR100032) using HBS-EP as running buffer (0.01 M HEPES pH 7.4, 0.15 M NaCl, 3 mM EDTA, 0.005% v/v Surfactant P20, GE Healthcare, cat. no. BR100188). The ligand immobilization levels on the surfaces were approximately 2000 RU for the anti-ABD antibody and 225 RU for hAβ₁₋₄₀. One flow cell surface on the chip was used as blank during analyte injections. HBS-EP was used as running buffer and the flow rate was 25 μl/min. The analytes, i.e. periplasmic preparations of Aβ peptide binding polypeptides as described above, were each diluted 15× in HBS-EP buffer and injected for 10 min, followed by dissociation in running buffer for 5 min. After dissociation, the surfaces were regenerated with 2 pulses of 10 mM glycin pH 2.0. […]
SPR analysis of periplasmic samples: The interactions of a subset of Z variants with anti-ABD goat antibody and hAβ₁₋₄₀ were analyzed in a Biacore instrument by injecting dilutions of periplasmic samples.

Response RU: 19.8 RU
B1: ABD (albumin binding domain GA3 from streptococcal Protein G), periplasm control (other)
chain: LAEAKVLANRELDKYGVSDYYKNLINNAKTVEGVKALIDEILAALP
notes: periplasm containing ABD only; also called negative control
